Laboratory results as given in PMC3781208 (Chemistry & biology, 2013).
Positions of bridges follow the written chain, without caps; N, C: chain ends. Non-standard residues stand in square brackets, D forms with d. Residues, ends and D or L forms follow the SMILES beside them. *: point of attachment. FITC = O=C1OC2(c3ccc(O)cc3Oc3cc(O)ccc32)c2ccc(NC(=S)*)cc21; S5 = C=CCCC[C@](C)(N)C(=O)O; Nle = CCCC[C@H](N)C(=O)O; βAla = NCCC(=O)O

Experiments:
FITC-PUMA SAHBF1 = FITC-PUMA SAHBF1 (UniProt Q9BXH1); test: fluorescence polarisation
[1] = biological target: FITC-PUMA BH3 (aa 131–153) (UniProt Q9BXH1); test: fluorescence polarisation
BAXΔC = BAXΔC (Homo sapiens, UniProt Q07812); test: Fluorescence polarization binding assay, BAXΔC; conditions: ratio of FP KDs
BAXΔC, sequence (Q07812 whole entry, stated change not applied): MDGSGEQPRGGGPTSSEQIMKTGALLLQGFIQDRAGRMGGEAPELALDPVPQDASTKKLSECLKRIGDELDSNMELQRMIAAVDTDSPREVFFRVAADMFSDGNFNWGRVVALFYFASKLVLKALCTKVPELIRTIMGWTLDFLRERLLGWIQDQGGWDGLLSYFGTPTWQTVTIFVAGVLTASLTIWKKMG

FITC-PUMA SAHBF1, sequence (Q9BXH1 131-153): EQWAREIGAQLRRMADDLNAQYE

Kd (FITC-PUMA SAHBF1) [nM]	Kd [1] [nM]	Compound	preference for BAXΔC over BAX A112C/V177C (BAXΔC) [fold]
90		BAX A112C/V177C (from UniProt Q07812 1-192) (natural protein)	
70	306	BAXΔC (domain or fragment)	
		CCCC[C@@H]1NC(=O)[C@@](C)(NC(=O)[C@H](CCCNC(=N)N)NC(=O)[C@H](CC(C)C)NC(=O)[C@H](CCC(N)=O)NC(=O)[C@H](C)NC(=O)CNC(=O)[C@@H](NC(=O)[C@H](CCC(=O)O)NC(=O)[C@H](CCCNC(=N)N)NC(=O)[C@H](C)NC(=O)[C@H](Cc2c[nH]c3ccccc23)NC(=O)[C@H](CCC(N)=O)NC(=O)[C@H](CCC(=O)O)NC(=O)CCNC(=S)Nc2ccc3c(c2)C(=O)OC32c3ccc(O)cc3Oc3cc(O)ccc32)[C@@H](C)CC)CCCC=CCCC[C@@](C)(C(=O)N[C@@H](CC(C)C)C(=O)N[C@@H](CC(N)=O)C(=O)N[C@@H](C)C(=O)N[C@@H](CCC(N)=O)C(=O)N[C@@H](Cc2ccc(O)cc2)C(=O)N[C@@H](CCC(=O)O)C(N)=O)NC(=O)[C@H](CC(=O)O)NC(=O)[C@H](C)NC1=O [FITC-PUMA SAHBA1] ({FITC-βAla}-EQWAREIGAQLR[S5][Nle]AD[S5]LNAQYE-NH2; staple 13-17; N-terminus and C-terminus assumed)	3
